We go through three molecules from publication PMC4498696 (PLoS Pathogens, 2015).

In test [1] the target is prefusion-stabilized RSV F ectodomain DS-Cav1 (strain A2), furin-cleaved trimer with foldon, tags removed (respiratory syncytial virus, strain A2 …, UniProt P03420). As to the kind of experiment: cell-based or functional assay.
Test [2] addresses full-length prefusion F (RSV F residues 1-574 with the DS-Cav1 stabilizing mutations) on the cell surface (Human respiratory syncytial virus A, …, UniProt P03420, stabilised). Nature of the test: flow cytometry on cells; Expi293 cells expressing RSV F 1-574 DS-Cav1 or its N426D variant; antibodies 1 μg/ml, 1 hour at 4°C; Alexa488 anti-human secondary; normalized to motavizumab binding. As to conditions: one partner purified. (Flow cytometry measures light scatter and fluorescence of single cells or particles in a stream.)

For test [3], the target named is T1, biotinylated AviTagged prefusion RSV F DS-Cav1, subtype A (strain A2) (Human respiratory syncytial virus A, …, stabilised, biotin (by biotin ligase BirA, on the AviTag)).
T1 construct: also called Biotinylated DS-Cav1; immobilized prefusion RSV F; source: FreeStyle 293-F, transfected, purified; biotinylated with BirA, Superdex 200; copies: 3 + 3
Nature of the test: Luminex bead binding assay; biotinylated RSV F proteins coupled to avidin-coated MagPlex beads (1 μg per 50,000 beads); IgG in 10-fold serial dilutions 1 μM to 0.1 pM; PE-conjugated anti-human IgG Fc; PBS, 0.1% BSA, 0.05% Tween 20. As to conditions: both partners purified.

In test [4] the target is T1, biotinylated AviTagged prefusion RSV F …. Nature of the test: SPR; biotinylated DS-Cav1 immobilised on an SA chip (292 RU), Biacore X100; AM14 Fab 5 nM to 19.5 pM in HBS-EP+; 1:1 binding model. As to conditions: both partners purified. A general note: SPR reads the build-up and loss of mass on a sensor chip optically.
Test [5] concerns the target T2, biotinylated prefusion RSV F DS-Cav1, subtype B (Human respiratory syncytial virus B, …, UniProt P13843, stabilised, biotin).
T2 construct: also called prefusion RSV F derived from B subtype; source: biotinylated protein coupled to avidin-coated beads; copies: 3 + 3
As to the kind of experiment: Luminex bead binding assay. As to conditions: both partners purified.

B1: AM14 IgG (antibody, V domains shown)
VH: EVQLVESGGGVVQPGRSLRLSCAASGFSFSHYAMHWVRQAPGKGLEWVAVISYDGENTYYADSVKGRFSISRDNSKNTVSLQMNSLRPEDTALYYCARDRIVDDYYYYGMDVWGQGATVTVSS
VL: DIQMTQSPSSLSASVGDRVTITCQASQDIKKYLNWYHQKPGKVPELLMHDASNLETGVPSRFSGRGSGTDFTLTISSLQPEDIGTYYCQQYDNLPPLTFGGGTKVEIK
In the case of B1, in test [1], the “IC50 of neutralisation of RSV strain A2 (F of the virus), microneutralization on HEp-2 cells” value was 0.0124 µg/mL and the “IC50 of neutralisation of RSV strain A Long (F of the virus), microneutralization on HEp-2 cells” value is 0.0136 µg/mL. Besides, in test [2], the binding result was “binds”. Further, it took 0.63 nM to reach a half-maximal effect in test [3] (EC50).

B2: AM14 Fab (Fab, V domains shown)
VH: EVQLVESGGGVVQPGRSLRLSCAASGFSFSHYAMHWVRQAPGKGLEWVAVISYDGENTYYADSVKGRFSISRDNSKNTVSLQMNSLRPEDTALYYCARDRIVDDYYYYGMDVWGQGATVTVSS
VL: DIQMTQSPSSLSASVGDRVTITCQASQDIKKYLNWYHQKPGKVPELLMHDASNLETGVPSRFSGRGSGTDFTLTISSLQPEDIGTYYCQQYDNLPPLTFGGGTKVEIK
Turning to B2, in test [4], binding was characterised by a dissociation constant (Kd) of 0.18 nM, the koff (usually the first-order rate constant of dissociation) was found to be 0.0034 s⁻¹ and the kon (usually the second-order rate constant of association) turned out to be 1.87e+07 M⁻¹ s⁻¹.

B3: motavizumab IgG (antibody, V domains shown)
VH: QVTLRESGPALVKPTQTLTLTCTFSGFSLSTAGMSVGWIRQPPGKALEWLADIWWDDKKHYNPSLKDRLTISKDTSKNQVVLKVTNMDPADTATYYCARDMIFNFYFDVWGQGTTVTVSS
VL: DIQMTQSPSTLSASVGDRVTITCSASSRVGYMHWYQQKPGKAPKLLIYDTSKLASGVPSRFSGSGSGTEFTLTISSLQPDDFATYYCFQGSGYPFTFGGGTKVEIK
B3: the binding result in test [5] is listed as “binds”.
